Test results published in patent US7387779B2, “Anti-angiogenic proteins and fragments and methods of use thereof” (Beth Israel Deaconess Medical Center, priority 1998, dated 2008).

Columns and labels:
C-PAE cells [1] = experiment: MTT cell viability assay; type: cell-based, bovine
Method: The pro-apoptotic activity of Tumstatin N-53 was examined in C-PAE cells. Cell viability was assessed by MTT (3-(4,5-dimethylthiazol-2-yl)-2-,5-diphenyl tetrasolium bromide) assay (Sugiyama, H. et al., 1998, Kidney Int. 54:1188-96). This assay is a quantitative calorimetric analysis for cell survival based on the ability of living cells to cleave the tetrasolium ring in active mitochondria. C-PAE cells (7,000 cells perwell) were plated to a 96-well plate in 10% FCS containing DMEM. The next day, either TNF-α (positive control, 80 ng/ml), or varying concentrations of Tumstatin or Tumstatin N-53 was added to the wells and incubated for 24 hours. MTT solution (5 mg/ml; CHEMICON International, Temecula, Calif., USA) was then added to the wells at a rate of 10 μl/well and incubated at 37° C. for 4 hours. Acid-isopropanol was added and mixed thoroughly. The absorbance was measured in a microplate reader (Bio-Rad, Hercules, Calif., USA) at 590 nm.
The MTT assay was used to evaluate cell viability in C-PAE endothelial cells and WM-164 melanoma cells after treatment with Tumstatin, Tum-1, Tum-2, Tum-3 and Tum-4. The results are shown in FIGS. 34A and 34B, which are a pair of graphs showing the effect of increasing concentration (x-axis) of Tumstatin, Tum-1, Tum-2, Tum-3 and Tum-4 on the cell viability (y-axis) of C-PAE cells (FIG. 34A) and WM-164 cells (FIG. 34B). Each point represents the mean ±the standard error of the mean for triplicate wells.
(§1) To further evaluate the mechanism of T3 peptide on endothelial cell proliferation, the effect of T3 peptide on cell cycle progression was analyzed. In the growth arrested and contact inhibited cells (0 hour), 4.1% of cells were in S phase. […] This was true even at a maximal dosage of 100 μg/ml. The effect of the T3 peptide was dose-dependent, however, with the percentage of cells in S phase at 21.4% at 10 μg/ml, and 20.5% at 25 μg/ml. The percentage of cells in G0/G1 phase was 88.3% at 0 hour, 53.4% for the bFGF control, and 57.6%, 57.6% and 71.0% for treatments with T1, T6 and T3 peptide, respectively. […] Apoptotic Activity: Peptides T2, T3, T4, T5 and T6 (10 μg/ml concentration) were tested for their effect of viability of C-PAE cells using the MTT assay, as described in Examples 32 and 36 above. The results are shown in FIG. 43D, which is a histogram showing cell viability as measured at OD595 (y-axis), and treatments with the synthetic peptides (x-axis). […] TNF-α (100 ng/ml) was used to serve as a positive control in inducing endothelial cell apoptosis.
Cell viability was measured by MTT assay, as described above.

C-PAE cells [2] = experiment: Cell cycle analysis (propidium iodide, flow cytometry); type: cell-based, bovine; conditions: for percentage of cells in G0/G1 phase: bFGF control 53.4%; for G1 (cell cycle arrest assay): Table 4
Method: as §1
The effect of Tumstatin-44-131 and Tum-5-125-C-A on the cell cycle were assayed similarly to Example 4 above. Briefly, C-PAE cells were growth arrested by contact inhibition for 48 hours. The cells, at 10^5 cells per well, were then harvested and plated into a 12-well plate coated with fibronectin in 5% FCS and either recombinant Tumstatin-44-131 or Tum-5-125-C-A. After 21 hours, the cells were harvested and fixed in 70% ice-cold ethanol. The fixed cells were rehydrated a room temperature for 30 minutes in PBS containing 2% FCS and 0.1% Tween-20, centrifuged and resuspended in 0.5 ml of the same buffer. RNase (5 μg/ml) digestion was done at 37° C. for one hour, followed by staining with propidium iodide (5 μg/ml). The cells were then counted using an EPICS XL-MCL flow cytometer (Beckman-Coulter Instruments, Fullerton, Calif., USA).

HUVEC cells = experiment: Cell adhesion assay with integrin blocking antibodies; type: cell-based, human; conditions: label = plate coating
Method: The attachment of HUVECs to Tumstatin-coated plates in the presence of integrin subunits α1 through α6, β1, and αvβ3 integrin blocking antibody was examined. This assay was performed according to the method of Senger et al. (Senger, D. R. et al, 1997, Proc. Natl. Acad. Sci. USA 94:13612-7), with minor modification. 96-well plates were coated with either human Tumstatin, mouse laminin-1, or human Type IV collagen (Collaborative Biomedical Prods., Bedford, Mass., USA) at a concentration of 10 μg/ml overnight at 37° C. Vitronectin (Collaborative Biomed. Prods.) at a concentration of 0.5 μg/ml was then used to coat the plates. The remaining protein binding sites were blocked with 100 mg/ml of BSA (Sigma Chemical Co., St. Louis, Mo., USA) in PBS for 2 hours. HUVEC cells were grown to subconfluence (70-80%) in EGM-2 medium, gently trypsinized and resuspended in serum-free medium (1.5×10^5 cells/ml). The cells were mixed with 10 μg/ml of either mouse IgG, (control) (Life Technologies/Gibco BRL, Gaithersberg, Md., USA) or antibody (mouse monoclonal antibody to the human β1 integrin (clone P4C10) (Life Technologies/Gibco BRL); monoclonal antibody to human integrins α1 through α.6 (CHEMICON Int'l, Temecula, Calif., USA); αvβ3 integrin (clone LM609) (CHEMICON Int'l) and incubated for 15 minutes at room temperature, with gentle agitation. One hundred microliters of the cell suspension was then added to each well and incubated for 45 minutes at 37° C. Unattached cells were removed by washing, and the number of attached cells were counted after staining with methylene blue. C-PAE cells were used in separate experiments, following the above procedure.
Cell Attachment Activity: Cell attachment using endothelial cells was performed as described above. HUVEC or C-PAE cells were incubated with monoclonal anti-human integrin antibodies, control mouse IgG (10 μg/ml), or synthetic peptide, plated onto pre-coated 96-well plates, and the number of cells attaching to the plates was determined using measurement of methylene blue staining at OD655. […] CNGRC peptide was used as a control.
The cell attachment assay was performed as described above.

WM-164 cells = experiment: Attachment of melanoma cells to coated plates; type: cell-based, human
Text: Tumstatin and all three of the deletion mutants […] attachment of WM-164 melanoma cells to the plates.

LQRFTTMPFLFCNVNDVCNF [T3] was tested, and the “effect on cell viability” value (C-PAE cells [1]) was “significantly decrease cell viability”, the “percentage of cells in S phase” value (C-PAE cells [2]; bFGF 24 hours (control 22.1%), 50 μg/ml) was 13.8% and the “percentage of cells in S phase” value (C-PAE cells [2]; bFGF 24 hours, 10 μg/ml) was 21.4%. The “percentage of cells in S phase” value (C-PAE cells [2]; bFGF 24 hours, 25 μg/ml) was 20.5% and the “percentage of cells in G0/G1 phase” value (C-PAE cells [2]) was 71.0%.

In the case of GLKGKRGDSGSPATWTTRGF [T1], the “percentage of cells in S phase” value (C-PAE cells [2]; bFGF 24 hours (control 22.1%), T1 or T6, maximal dosage of 100 μg/ml) is reported as 22.3% and the “percentage of cells in G0/G1 phase” value (C-PAE cells [2]) is reported as 57.6%.

B1: Tumstatin-44-131: residues 44 to 131 of full-length Tumstatin (SEQ ID NO:33) (protein)
chain: FSFLFVQGNQRAHGQDLGTLGSCLQRFTTMPFLFCNVNDVCNFASRNDYSYWLSTPALMPMNMAPITGRALEPYISRCTVCEGPAIAI
modifications: Tumstatin-45-132 (amino acids 45-132 of SEQ ID NO10)
B1 was tested, and the “ED50, decrease of cell viability” value (C-PAE cells [1]) was 12 µg/mL, the “inhibition of HUVEC attachment to coated plates by αvβ3 antibody” value (HUVEC cells; 10 μg/ml antibody) was 47.1% and the “inhibition of HUVEC attachment to coated plates by β1 antibody” value (“inhibition … by β1 antibody” below) (HUVEC cells; 10 μg/ml antibody) was 47.5%. For the same molecule, the “percentage of cells in S phase” value (C-PAE cells [2]; 5% FCS 21 hours (control 21.5%), dose not given) was 6.0%, the “percentage of cells in S phase” value (C-PAE cells [2]; 5% FCS 21 hours, 1 μg/ml) was 19.3% and the “percentage of cells in S phase” value (C-PAE cells [2]; 5% FCS 21 hours, 10 μg/ml) was 11.3%. The “G1 (cell cycle arrest assay)” value (C-PAE cells [2]) was <5 µg.

B2: Tum-4: residues 181 to 244 of Tumstatin (SEQ ID NO:25) (protein)
chain: EFRASPFLECHGRGTCNYYSNSYSFWLASLNPERMFRKPIPSTVKAGELEKIISRCQVCMKKRH
modifications: Tum-4 (amino acids 181-244 of SEQ ID NO10)
B2 was tested, and the “binding of WM-164 cells to coated plates” value (WM-164 cells) was “bind to WM-164 cells”.

B3: Tumstatin: NC1 domain of the α3 chain of type IV collagen, residues 1-244 (SEQ ID NO:10) (protein, listed as Homo sapiens)
chain: GLKGKRGDSGSPATWTTRGFVFTRHSQTTAIPSCPEGTVPLYSGFSFLFVQGNQRAHGQDLGTLGSCLQRFTTMPFLFCNVNDVCNFASRNDYSYWLSTPALMPMNMAPITGRALEPYISRCTVCEGPAIAIAVHSQTTDIPPCPHGWISLWKGFSFIMFTSAGSEGTGQALASPGSCLEEFRASPFLECHGRGTCNYYSNSYSFWLASLNPERMFRKPIPSTVKAGELEKIISRCQVCMKKRH
In the case of B3, the “binding of WM-164 cells to coated plates” value (WM-164 cells) is reported as “bind to WM-164 cells”, the “decrease of cell viability” value (C-PAE cells [1]; 5 μg/ml, 24 hours) is reported as 22.5% and the “decrease of cell viability” value (C-PAE cells [1]; 10 μg/ml) is reported as 60%. The “inhibition of HUVEC attachment by antibody to subunits α1 through α4” value (HUVEC cells) was “did not block”, the “inhibition of HUVEC attachment by αvβ3 antibody and β1 antibody together” value (HUVEC cells) was 91% and the “inhibition of HUVEC attachment to coated plates by α5 antibody” value (HUVEC cells; 10 μg/ml antibody) was 20%. For the same molecule, the “inhibition of HUVEC attachment to coated plates by α6 antibody” value (HUVEC cells; 10 μg/ml antibody) was 54%, the “inhibition of HUVEC attachment to coated plates by αvβ3 antibody” value (HUVEC cells; 10 μg/ml antibody) was 80% and the “inhibition … by β1 antibody” value (HUVEC cells; 10 μg/ml antibody) was 54%. The “G1 (cell cycle arrest assay)” value (C-PAE cells [2]) was 10 µg.

B4: Tum-1: residues 54 to 244 of Tumstatin, lacking the N-terminal 53 amino acids (SEQ ID NO:22) (protein)
chain: QRAHGQDLGTLGSCLQRFTTMPFLFCNVNDVCNFASRNDYSYWLSTPALMPMNMAPITGRALEPYISRCTVCEGPAIAIAVHSQTTDIPPCPHGWISLWKGFSFIMFTSAGSEGTGQALASPGSCLEEFRASPFLECHGRGTCNYYSNSYSFWLASLNPERMFRKPIPSTVKAGELEKIISRCQVCMKKRH
modifications: Tum-1 (Tumstatin N-53) (amino acids 54-244 of SEQ ID NO10)
B4 was tested, and the “binding of WM-164 cells to coated plates” value (WM-164 cells) was “bind to WM-164 cells”, the “effect on cell viability” value (C-PAE cells [1]) was “decreases cell viability in a dose-dependent manner” and the “decrease of cell viability” value (C-PAE cells [1]; 5 μg/ml, 24 hours) was 49.4%. For the same molecule, the “inhibition of HUVEC attachment to coated plates by α6 antibody” value (HUVEC cells; 10 μg/ml antibody) was “did not”, the “inhibition of HUVEC attachment to coated plates by αvβ3 antibody” value (HUVEC cells; 10 μg/ml antibody) was “inhibited this adhesion” and the “inhibition … by β1 antibody” value (HUVEC cells; 10 μg/ml antibody) was “inhibited this adhesion”. The “G1 (cell cycle arrest assay)” value (C-PAE cells [2]) was 5 µg.

B5: Tum-2: residues 1 to 132 of Tumstatin (SEQ ID NO:23) (protein)
chain: GLKGKRGDSGSPATWTTRGFVFTRHSQTTAIPSCPEGTVPLYSGFSFLFVQGNQRAHGQDLGTLGSCLQRFTTMPFLFCNVNDVCNFASRNDYSYWLSTPALMPMNMAPITGRALEPYISRCTVCEGPAIAI
modifications: Tum-2 (amino acids 1-132 of SEQ ID NO10)
With B5 the “binding of WM-164 cells to coated plates” value (WM-164 cells) was “bind to WM-164 cells”.
